These results are taken from paper PMC6803667 (Scientific Reports, 2019).

Several values for one entry are separate records, joined by “and”; a condition that tells them apart may be missing. Identical values can stand only once.

Conditions in all cases: both partners purified
The target of test [1] is T1, third WW domain of human NEDD4 (hNEDD4-WW3), unlabelled (human, UniProt P46934 834-878).
T1 construct: not shown: GST, N-terminal, cleaved; His tag, N-terminal, cleaved
The test can be described thus: ITC. (In general: In ITC the heat of successive injections is recorded.)

Test [2] concerns the target T2, second WW domain of human YAP2 (YAP-WW2) (human, UniProt P46937-2 228-271).
T2 construct: also called hYAP-WW2; not shown: GST, N-terminal, cleaved; His tag, N-terminal, cleaved
The test can be described thus: other fluorescence titration.

The target of test [3] is T3, first WW domain of human YAP2 (YAP-WW1) (human, UniProt P46937-2 165-209).
T3 construct: also called hYAP-WW1; not shown: GST, N-terminal, cleaved; His tag, N-terminal, cleaved
T3 sequence (P46937 165-209): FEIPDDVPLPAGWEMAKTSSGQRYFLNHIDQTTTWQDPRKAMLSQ
As to the kind of experiment: other fluorescence titration.

The target in test [4] is T2, second WW domain of human YAP2 (YAP-WW2). The test can be described thus: ITC.
Test [5] concerns the target T3, first WW domain of human YAP2 (YAP-WW1). The test can be described thus: ITC.
For test [6], the target named is T2, second WW domain of human YAP2 (YAP-WW2). The test can be described thus: other fluorescence titration; tryptophan fluorescence of the WW domain (20 uM), excitation 298 nm, centre of spectral mass against peptide concentration, one to one model; 20 mM sodium phosphate pH 7.0, 25 °C.
In test [7] the target is T3, first WW domain of human YAP2 (YAP-WW1). Described as above.

T2 sequence (P46937 228-271): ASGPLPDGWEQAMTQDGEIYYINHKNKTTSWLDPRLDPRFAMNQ
T1 sequence (P46934 834-878): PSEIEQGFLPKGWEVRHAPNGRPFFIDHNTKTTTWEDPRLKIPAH

B1: HTLV1ter Late domain peptide (peptide)
peptide: Ac-PPPYVEPTAP-NH2
notes: source: synthetic peptide, bought: SynBioSci Corporation
B1: in test [1], the Kd (usually the concentration at which binding is half-saturated) was 178 ± 3 µM and the dH is -17.7 ± 0.191 kcal/mol.
Consider MQYLNPPPYADH [Marburg Late domain peptide], for which the Kd in test [2] worked out at 17 ± 1 µM; in test [3], 67 ± 4 µM; in test [1], 51 ± 1 µM. Also, the dH in test [1] is -17.5 ± 0.167 kcal/mol.
The like results for ILPTAPPEYMEA [Ebola Late domain peptide] were, in that order, 560 ± 30 µM, 750 ± 10 µM, 147 ± 4 µM and -12.1 ± 0.167 kcal/mol.
In test [4], Ac-EYPPYPPPPYPSG-NH2 [p53bp2 human peptide] came in with a dissociation constant (Kd) of 12 ± 0.6 µM and a dH of -13.6 ± 0.239 kcal/mol. In addition, in test [5], the Kd is 3 µM and 1.1 µM and 1.8 µM; the dH was -14.6 kcal/mol and -15.9 kcal/mol and -13.1 kcal/mol.
For the molecule DLWLPPPEYVPL [Rabies Late domain peptide], the values for the Kd in test [5] and in test [1] were 181 ± 5 µM and 51 ± 1 µM, respectively. The dH in test [5] is -15.2 ± 0.215 kcal/mol; in test [1], -15.7 ± 0.191 kcal/mol.
As for SDPQIPPPYVEP [HTLV1 Late domain peptide], the Kd in test [6] amounted to 260 ± 40 µM; in test [7] it was 308 ± 4 µM; in test [1] it was 61 ± 1 µM. Moreover, the dH in test [1] is -16.3 ± 0.143 kcal/mol.
